Patent publication US20080058276A1, “ALZHEIMER'S DISEASE THERAPEUTICS BASED ON PIN-1 CATALYZED CONFORMATIONAL CHANGES IN PHOSPHORYLATED AMYLOID PRECURSOR PROTEIN” (CORNELL RESEARCH FOUNDATION, INC., priority 2006, published 2008)
Bridge positions count the residues as written; N and C are the ends. Square brackets hold non-standard residues; d marks the D form. Ends that are not written are not given here. pT = C[C@@H](OP(=O)(O)O)[C@H](N)C(=O)O; resin = not defined here

Tests used:
[1] = target: T1, Pin1 WW domain (Homo sapiens, UniProt Q13526); test: Competitive GST-WW pulldown of 32P-AICD; format: binding; details: increasing amounts of phosphopeptide
T1 construct: made in house; host or cells: bacteria
Experimental: For competitive binding assays, synthetic peptides, APPtide (EVDAAVp[…] (SEQ ID NO: 13), and its non-phosphorylated counterpart, were synthesized and purchased from Merck Co. The accuracy and purity were identified by mass spectroscopy. APPtide was dissolved in the binding buffer described in Lu et al., “A Function of WW Domains as Phosphoserine- or Phosphothreonine-binding Modules,” Science 283:1325-1328 (1999), which is hereby incorporated by reference in its entirety, and added into the GST pull down reaction for the competitive binding assay (Lu et al., “A Function of WW Domains as Phosphoserine- or Phosphothreonine-binding Modules,” Science 283:1325-1328 (1999), which is hereby incorporated by reference in its entirety).
To identify the Pin1-binding site in APP, alanine was substituted for Thr668, the only Thr/Ser-Pro motif in the APP intracellular domain (“AICD”). […] AICD, but not AICD^T668A, was phosphorylated by Cdc2 (Suzuki et al., “Cell Cycle-dependent Regulation of the Phosphorylation and Metabolism of the Alzheimer Amyloid Precursor Protein,” Embo J 13(5): 1114-22 (1994), which is hereby incorporated by reference in its entirety).

[2] = target: T2, pThr668-Pro motif in APP (21-residue phosphopeptide G659-Q679 of APP) (Homo sapiens, UniProt P05067); test: NMR (ROESY) analysis of Pin1-catalyzed cis/trans isomerization of the pThr668-Pro bond; format: biochemical
T2 construct: isomerization of the pThr668-Pro bond in a 21-residue phosphopeptide (G659-Q679 of APP); made in house; host or cells: peptide chemically synthesized; Pin1 recombinant (bacteria, as said in general terms)
Experimental: All experiments were recorded at 25° C. on a Varian Inova 600 MHz spectrometer with the ^1H carrier set on water. ROESY data sets were acquired with spectral widths of 6 kHz (8 kHz) in t1 (t2) and 640 (2048) complex data points, and were processed as described in Ramelot & Nicholson, “Phosphorylation-induced Structural Changes in the Amyloid Precursor Protein Cytoplasmic Tail Detected by NMR,” J Mol Biol 307(3):871-84 (2001), which is hereby incorporated by reference in its entirety. Peak intensities were obtained using Pipp (Garrett et al., “A Common-sense Approach to Peak-picking in 2-Dimensional, 3-Dimensional, and 4-Dimensional Spectra Using Automatic Computer-analysis of Contour Diagrams,” J Magn Reson 95:214-20 (1991), which is hereby incorporated by reference in its entirety), and curve fits and error analyses were performed using SigmaPlot (Systat Software, Inc.). […] Ict/Icc=kct^cat[exp(kextm)−1]/[ktc^catexp(kextm)+kct^cat] Itc/Itt=ktc^cat[exp(kextm)−1]/[kct^catexp(kextm)+ktc^cat] where kex=kct^cat+ktc^cat, and tm corresponds to the ROESY mixing time. The desired rate constants were extracted by recording ROESY spectra with different mixing times and fitting the intensity ratios obtained to the above equations. ^15N—^1H HSQC data sets were acquired with spectral widths of 1.4 kHz (10 kHz) in t1 (t2) and 512 (2048) complex data points, and were processed as described in Ramelot & Nicholson, “Phosphorylation-induced Structural Changes in the Amyloid Precursor Protein Cytoplasmic Tail Detected by NMR,” J Mol Biol 307(3):871-84 (2001), which is hereby incorporated by reference in its entirety.
In the ROESY spectrum, the intensities of exchange and diagonal peaks for a two-state isomerization reaction explicitly depend on the forward (“kct^cat”) and backward (“ktc^cat”) rate constants (FIG. 5B), and on the mixing time (“tm”).

[3] = test system: CHO-APP cells; test: Total Aβ secretion (ELISA) after Pin1 overexpression in CHO-APP cells; format: cell-based, Chinese hamster; details: asynchronous or mitotic cells
[4] = test system: CHO cells; test: Total Aβ secretion (ELISA) after co-transfection of Pin1 and APP751 in CHO cells; format: cell-based, Chinese hamster; details: Pin1 overexpression with APP751, asynchronous or mitotic cells
[5] = target: T3, APP (Homo sapiens, UniProt P05067, T743A); test: GST-Pin1 pulldown of APP and its mutants; format: binding; details: expressed in mitotic cells
T3 construct: expressed in transfected cells; host or cells: N18 neuroblastoma cells transfected with HA-APP (from APP/pCMV)

[6] = linear sequence; cited from earlier work
[7] = NMR (2D 1H-1H TOCSY and 1D 31P) determination of cis and trans populations of phosphopeptide; format: physicochemical; details: pThr-Pro bond, NMR on reaction mixture
Text: The cis conformation of the pThr-Pro motif in AICD is unique from the trans isomer in that it is stabilized by different hydrogen bonds, and it is more extended in backbone conformation, aside from the kink of the cis peptide bond (Ramelot & Nicholson, “Phosphorylation-induced Structural Changes in the Amyloid Precursor Protein Cytoplasmic Tail Detected by NMR,” J Mol Biol 307(3):871-84 (2001), which is hereby incorporated by reference in its entirety). It was hypothesized that the cis conformation could be stabilized by formation of a covalent bond between V667 NH and E670 COO— (hydrogen bonded in the NMR structure), thereby stabilizing the cis isomer relative to the trans. A 6-residue phosphopeptide corresponding to APP residues V667-R72 ([NH2]-V-pT-P-E-E-R-resin (SEQ ID NO: 1)) was commercially synthesized with an orthogonal blocking group on E4 (Tufts Core Facility), and sent on the resin. […] The spectra show two cis populations that most likely reflect different hydrogen bond geometries adopted in the cis isomer (Ramelot & Nicholson, “Phosphorylation-induced Structural Changes in the Amyloid Precursor Protein Cytoplasmic Tail Detected by NMR,” J Mol Biol 307(3):871-84 (2001), which is hereby incorporated by reference in its entirety).

[8] = target: WW domain of Pin1 (Homo sapiens, UniProt Q13526); test: 15N-1H HSQC titration of {15N}-WW with peptide; format: binding; details: relative to linear pAICD
Experimental: The pThr668-Pro peptides were synthesized, purified, and analyzed as reported in (Ramelot & Nicholson, “Phosphorylation-induced Structural Changes in the Amyloid Precursor Protein Cytoplasmic Tail Detected by NMR,” J Mol Biol 307(3):871-84 (2001), which is hereby incorporated by reference in its entirety). […] For ^15N—^1H HSQC experiments, ^15N-E670-pT668 peptide was dissolved in the same buffer adjusted to pH 6.7, with subsequent addition of an equimolar amount of the WW domain (0.2 mM). All experiments were recorded at 25° C. on a Varian Inova 600 MHz spectrometer with the ^1H carrier set on water. ROESY data sets were acquired with spectral widths of 6 kHz (8 kHz) in t1 (t2) and 640 (2048) complex data points, and were processed as described in Ramelot & Nicholson, “Phosphorylation-induced Structural Changes in the Amyloid Precursor Protein Cytoplasmic Tail Detected by NMR,” J Mol Biol 307(3):871-84 (2001), which is hereby incorporated by reference in its entirety. […]
Natural abundance peptide (either the linear or cyclic pAICD peptide) was incrementally added to {^15N}-WW and peak shifts were monitored via ^15N—^1H HSQC spectra.

T1 sequence (Q13526 5-39 limits assumed): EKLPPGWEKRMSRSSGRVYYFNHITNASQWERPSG
Chain of WW domain of Pin1 (Q13526 5-39 limits assumed): as above

Q: With “EVDAAVpTPEERHLS (SEQ ID NO: 13) (EVDAAV[pT]PEERHLS) [pThr668-containing APP peptide]” as the substance, how does the “competition of 32P-AICD binding to GST-WW” value [1] read?
A: effectively competed

Q: What does the source list for “Pin1: peptidyl-prolyl isomerase that specifically isomerizes pSer/Thr-Pro bonds; GenBank Accession No. U49070”?
A: difference between kct^cat and ktc^cat rates [2]: 10 fold; acceleration of pThr668-Pro isomerization rate over typical uncatalyzed isomerization rates for pThr-Pro peptides ([2]; 3 mM peptide, 0.05 mM Pin1, 25° C.): several orders of magnitude; ROESY exchange cross peaks (E670-HN cis/trans) ([2]; catalytic amount of enzyme, 60:1 peptide:enzyme): exchange cross peaks were observed; average lifetime of the cis isomeric state ([2]; in presence of Pin1): ~0.05 s; average lifetime of the trans isomeric state ([2]; in presence of Pin1): ~0.5 s; acceleration of isomerization of the phosphorylated Thr668-Pro motif in APP ([2]; visualized by NMR): over 1000 fold; Aβ secretion [3]: significantly reduced; Aβ secretion [4]: significantly reduced; binding to APP^T668A mutant [5]: failed to bind

Q: Which cis conformation [6] does the source give for “[NH2]-V-pT-P-E-E-R-resin (SEQ ID NO: 1) (H-V[pT]PEER-resin; not fully specified; printed as [NH2]-V-pT-P-E-E-R-resin; reading uncertain) [6-residue phosphopeptide, linear phosphopeptide corresponding to APP residues V667-R72]” here?
A: 10%

Q: What about the trans conformation [6] of the same substance?
A: 90%

Q: For “cyclic pAICD: VpTPEER (SEQ ID NO: 1) phosphopeptide cyclized by covalent bond between V667 NH and E670 COO- (V[pT]PEER; lactam N-4)”, which cis population [7] is on record?
A: ~30%

Q: What about the trans population [7] of the same substance?
A: 70%

Q: And the “WW domain peak shifts upon saturation with peptide” value [8]?
A: smaller peak shifts
